The source of these data is patent US20150344570A1 (published 2015).

One assay has as its target T1, FcγRIIIa (human, UniProt P08637 17-208).
T1 construct: extracellular domain; Soluble extracellular domain with a C-terminal His tag, expressed in FreeStyle293 cells and used as the analyte in Biacore; also called FcgRIIIa; CD16A; not shown: His tag attached to the C terminus
Briefly: SPR (Biacore); KD of GpH7-TA7/GpH7-B78/GpL16-k0 for FcγRIIIa divided by the KD of this antibody (this row is the reference itself). As for the experimental part: The prepared antibodies were compared for the FcγRIIIa-binding activity using, as an indicator, KD for FcγRIIIa that was determined according to the method described in Reference Example 2.
Analysis of interaction between objective antibody and the FcγR was carried out using Biacore T100 (GE Healthcare). HBS-EP+ (GE Healthcare) was used as the running buffer, and the measurement temperature was set to 25° C. Chips produced by immobilizing the antigen peptide by the amine coupling method to a Series S Sencor Chip CM5 (GE Healthcare), or alternatively, chips produced by allowing preliminarily biotinylated antigen peptides to interact with and immobilize onto a Series S Sensor Chip SA (certified) (GE Healthcare) were used. Antibodies of interest were captured onto an antigen peptide-immobilized chip, and allowed to interact to each FcγR diluted with running buffer. To regenerate and repeatedly use the chip, the antibodies captured on the chip were washed off by reacting 10 mM glycine-HCl, pH 1.5.
Specifically, to calculate association rate constant ka (L/mol/s) and dissociation rate constant kd (1/s), sensorgrams obtained by measurement were processed for global fitting by Biacore Evaluation Software using 1:1 Langmuir binding model and dissociation constant KD (mol/1) was calculated from the resulting values.

A further assay addresses FcγRIa (human, UniProt P12314 16-292). Briefly: SPR (Biacore 4000).
A further assay concerns the target FcγRIIIa V (human, UniProt P08637 17-208). The assay is described as follows: SPR (Biacore), KD; the variant that showed the most enhancement.
For a further assay, the target named is FcγRIIIa F (human, UniProt P08637 17-208). The assay is described as above.
Chain of FcγRIIIa F (P08637 17-208): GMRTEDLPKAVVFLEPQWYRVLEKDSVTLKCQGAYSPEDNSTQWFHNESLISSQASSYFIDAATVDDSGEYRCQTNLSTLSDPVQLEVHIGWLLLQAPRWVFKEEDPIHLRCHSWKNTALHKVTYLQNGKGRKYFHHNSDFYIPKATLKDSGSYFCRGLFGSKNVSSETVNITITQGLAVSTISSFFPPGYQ
The target in another assay is FcγRIIa R (human, UniProt P12318 34-217). Briefly: SPR (Biacore), KD; showed the most enhancement.
The target in another assay is FcγRIIa H (human, UniProt P12318 34-217). Briefly: SPR (Biacore), KD; showed the most enhancement.

Numbering of substitutions follows the chain as printed.

Chain of FcγRIIIa V (P08637 17-208): as above
T1 sequence (P08637 17-208): as above
Chain of FcγRIa (P12314 16-292): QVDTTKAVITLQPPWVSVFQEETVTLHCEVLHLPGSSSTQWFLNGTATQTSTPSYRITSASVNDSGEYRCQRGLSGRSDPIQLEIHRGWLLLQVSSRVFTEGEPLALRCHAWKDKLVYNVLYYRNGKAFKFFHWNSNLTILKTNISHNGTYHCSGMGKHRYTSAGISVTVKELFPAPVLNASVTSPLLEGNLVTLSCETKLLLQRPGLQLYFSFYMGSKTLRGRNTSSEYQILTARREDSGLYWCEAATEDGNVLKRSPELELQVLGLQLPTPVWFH

B1: GpH7-TA7/GpH7-B78/GpL16-k0 (antibody, human IgG1, kappa)
heavy 1: QVQLVQSGAEVKKPGASVTVSCKASGYTFTDYEMHWIRQPPGEGLEWIGAIDPKTGDTAYSESFQDRVTLTADKSTSTAYMELSSLTSEDTAVYYCTRFYSYTYWGQGTLVTVSSASTKGPSVFPLAPSSKSTSGGTAALGCLVKDYFPEPVTVSWNSGALTSGVHTFPAVLQSSGLYSLSSVVTVPSSSLGTQTYICNVNHKPSNTKVDKKVEPKSCDKTHTCPPCPAPEYLWGPSVFLFPPKPKDTLMISRTPEVTCVVVDVSHEDPEVKFNWYVDGVEVHNAKTKPREEQYNATYRVVSVLTVLHQDWLNGKEYKCKVSNKALPAPIEKTISKAKGQPREPQVYTLPPSRKELTKNQVSLTCLVKGFYPSDIAVEWESNGQPENNYKTTPPVLDSDGSFFLYSKLTVDKSRWQQGNVFSCSVMHEALHNRYTQKSLSLSP
heavy 2: B1 heavy 1 with Y232L, W234G, S237D, A296S, A328L, I330E, K354D, R433H, K437E
light: DIVMTQSPLSLPVTPGEPASISCQASESLVHSNRNTYLHWYLQKPGQSPQLLIYKVSNRFSGVPDRFSGSGSGTDFTLKISRVEAEDVGVYYCSQNTHVPPTFGQGTKVEIERTVAAPSVFIFPPSDEQLKSGTASVVCLLNNFYPREAKVQWKVDNALQSGNSQESVTEQDSKDSTYSLSSTLTLSKADYEKHKVYACEVTHQGLSSPVTKSFNRGEC
notes: Heterodimerized anti-glypican-3 IgG1 antibody with two different H chains (same variable region GpH7) and a common L chain; also called TA7/B78
Turning to B1, the KD ratio with FcγRIIIa worked out at 1.

B2: H240-Kn120/H240-Hl073/L73-k0 (antibody, human IgG1, kappa)
heavy 1: QDQLVQSGAEVKKPGASVKVSCKASGFNIKDTYIQWVRQAPGQGLEWMGRIDPLRKQTKYREKFEGRVTITADTSTNTAYMELSSLRSEDTAVYYCVRSGREFDYWGQGTLVTVSSASTKGPSVFPLAPSSKSTSGGTAALGCLVKDYFPEPVTVSWNSGALTSGVHTFPAVLQSSGLYSLSSVVTVPSSSLGTQTYICNVNHKPSNTKVDKKVEPKSCDKTHTCPPCPAPEYYWGPMVFLFPPKPKDTLMISRTPEVTCVVVDVSDEDPEVKFNWYVDGVEVHNAKTKPREEQYNATYRVVSVLTVLHQDWLNGKEYKCKVSNKDLPAPIEKTISKAKGQPREPQVCTLPPSRDELTKNQVSLWCLVKGFYPSDIAVEWESNGQPENNYKTTPPVLDSDGSFFLYSKLTVDKSRWQQGNVFSCSVMHEALHNHYTQKSLSLSP
heavy 2: QDQLVQSGAEVKKPGASVKVSCKASGFNIKDTYIQWVRQAPGQGLEWMGRIDPLRKQTKYREKFEGRVTITADTSTNTAYMELSSLRSEDTAVYYCVRSGREFDYWGQGTLVTVSSASTKGPSVFPLAPSSKSTSGGTAALGCLVKDYFPEPVTVSWNSGALTSGVHTFPAVLQSSGLYSLSSVVTVPSSSLGTQTYICNVNHKPSNTKVDKKVEPKSCDKTHTCPPCPAPELLSGPSVFLFPPKPKDTLMISRTPEVTCVVVDVSHEEPEVKFNWYVDGVEVHNAKTKPREEQYNSTYRVVSVLTVLHQDWLNGKEYKCKVSNDALPKPIEETISKAKGQPREPQVYTLPPSRCELTKNQVSLSCAVKGFYPSDIAVEWESNGQPENNYKTTPPVLDSDGSFFLVSKLTVDKSRWQQGNVFSCSVMHEALHNHYTQKSLSLSP
light: DIQMTQSPSSLSASVGDRVTITCRASQDIHKYIAWYQQKPGQAPRLLIQYTSTLQPGVPSRFSGSGSGTDYTFTISSLQPEDIATYYCLQYEQLRTFGGGTKVEIKRTVAAPSVFIFPPSDEQLKSGTASVVCLLNNFYPREAKVQWKVDNALQSGNSQESVTEQDSKDSTYSLSSTLTLSKADYEKHKVYACEVTHQGLSSPVTKSFNRGEC
notes: G236S introduced into H240-Hl068; also called H240-Kn120/H240-HI073/L73-k0
As for B2, in the assay with FcγRIa, the koff was less than 5e-05 s⁻¹.

B3: H240-Kn203/H240-Hl210/L73-k0 (antibody, human IgG1, kappa)
heavy 1: B2 heavy 1 with Y233F
heavy 2: B2 heavy 2 with S235G, K329A
light: B2 light
notes: 330 A in H240-Hl076
As to B3, the “fold binding activity against H240-Kn033/H240-Hl033/L73-k0” value (“fold binding activity” below) with FcγRIIIa V stood at 107 fold.

B4: H240-Kn227/H240-Hl214/L73-k0 (antibody, human IgG1, kappa)
heavy 1: B2 heavy 1 with Y233E, Y234Q, M238I, D269E, D326A
heavy 2: B2 heavy 2 with S235G, K329F
light: B2 light
notes: 330 F in H240-Hl076
For the molecule B4, the “fold binding activity” value in the assay with FcγRIIIa F came out at 161 fold.

B5: H240-Kn231/H240-Hl068/L73-k0 (antibody, human IgG1, kappa)
heavy 1: B2 heavy 1 with Y233I, M238I
heavy 2: B2 heavy 2 with S235G
light: B2 light
For B5, the “fold binding activity” value with FcγRIIa R was determined as 83 fold; with FcγRIIa H, 33 fold.
